Laboratory results reported in article PMC6114900, “Molecular basis for CesT recognition of type III secretion effectors in enteropathogenic Escherichia coli” (PLoS Pathogens, 2018).

B1: His6-Tir^35-77 (domain or fragment)
chain: GHLISSTGALGSRSLFSPLRNSMADSVDSRDIPGLPTNPSRLA
notes: not shown: His6, N-terminal, kept
B2: His6-Tir^23-80 (domain or fragment)
chain: PSQTDGAARGGTGHLISSTGALGSRSLFSPLRNSMADSVDSRDIPGLPTNPSRLAAAT
notes: as for B1
B3: His6-Tir^32-80 (domain or fragment)
chain: GGTGHLISSTGALGSRSLFSPLRNSMADSVDSRDIPGLPTNPSRLAAAT
notes: as for B1
B4: His6-Tir^490-550 (domain or fragment)
chain: SGSGPVTGRLIGTPGQGIQSTYALLANSGGLRLGMGGLTSGGESAVSSVNAAPTPGPVRFV
notes: also called C-terminal Tir peptide; not shown: His6, N-terminal, kept

Tests used:
[1] = molecular target: T1, CesT (no tag, co-expressed and co-purified with His6-Tir constructs) (enteropathogenic Escherichia coli (EPEC), UniProt P21244 1-156); assay: SEC; settings: both partners purified
T1 construct: also called full-length CesT

[2] = molecular target: T2, CesT^138 (no tag, co-expressed and co-purified with His6-Tir peptides) (enteropathogenic Escherichia coli (EPEC), UniProt P21244 2-138); assay: pull-down; settings: partners not purified
T2 construct: also called CesT^2-138
T2 sequence (P21244 2-138): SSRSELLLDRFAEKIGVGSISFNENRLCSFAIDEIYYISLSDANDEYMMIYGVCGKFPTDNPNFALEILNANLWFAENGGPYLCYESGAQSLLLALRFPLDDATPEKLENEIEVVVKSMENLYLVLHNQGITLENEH

T1 sequence (P21244 whole entry): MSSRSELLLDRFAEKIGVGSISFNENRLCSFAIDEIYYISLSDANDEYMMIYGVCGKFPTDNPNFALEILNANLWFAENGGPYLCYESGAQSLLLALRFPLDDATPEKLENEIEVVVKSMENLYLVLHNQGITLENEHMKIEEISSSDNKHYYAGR

| Binder | binding result [1] | binding result [2] |
| --- | --- | --- |
| B1 | binds |  |
| B2 | binds |  |
| B3 | binds | binds |
| B4 | binds |  |
